Assay results taken from US20110312883A1 (NTF THERAPEUTICS, published 2011).
Changes are numbered by the printed parent chain.

B1: NRTN WT (ligand)
mature neurturin monomer of the disulfide-linked homodimer: ARLGARPCGLRELEVRVSELGLGYASDETVLFRYCAGACEAAARVYDLGLRRLRQRRRLRRERVRAQPCCRPTAYEDEVSFLDAHSRYHTVHELSARECACV
notes: also called purified untagged mature wild type neurturin made by the same method as the variants
B2: neurturin variant N2 (untagged, purified) (ligand)
chain: B1 mature neurturin monomer of the disulfide-linked homodimer with R54A, R61A, R63A
notes: Dimeric protein; also called NRTN N2; neurturin mutant N2
B3: neurturin variant N4 (untagged, purified) (ligand)
chain: B1 mature neurturin monomer of the disulfide-linked homodimer with R51A, R54Q, Q55G, R56Q, R57G, R58A, R60V, R61G, E62S
notes: Dimeric protein; also called NRTN N4; neurturin mutant N4
B4: neurturin variant N1 (untagged, purified) (ligand)
chain: B1 mature neurturin monomer of the disulfide-linked homodimer with R52A, R56A, R58A
notes: Dimeric protein; also called NRTN N1; neurturin mutant N1
B5: neurturin variant N3 (untagged, purified) (ligand)
chain: B1 mature neurturin monomer of the disulfide-linked homodimer with R52A, R54A, R56A, R58A, R61A
notes: Dimeric protein; also called NRTN N3; neurturin mutant N3
B6: V5-tagged wild-type neurturin (ligand)
chain: ARGKPIPNPLLGLDSTSGARLGARPCGLRELEVRVSELGLGYASDETVLFRYCAGACEAAARVYDLGLRRLRQRRRLRRERVRAQPCCRPTAYEDEVSFLDAHSRYHTVHELSARECACV
notes: Secreted from transiently transfected CHO cells and used as crude conditioned medium; also called NRTN WT; E779
B7: V5-tagged neurturin variant NV1 (ligand)
chain: B6 chain with R70A, R74A, R76A
notes: Crude conditioned medium of transfected CHO cells; also called NRTN NV1; NV1 (from N1)
B8: V5-tagged neurturin variant NV2 (ligand)
chain: B6 chain with R72A, R79A, R81A
notes: Crude conditioned medium of transfected CHO cells; also called NRTN NV2; NV2 (from N2)
B9: V5-tagged neurturin variant NV3 (ligand)
chain: B6 chain with R70A, R72A, R74A, R76A, R79A
notes: Crude conditioned medium of transfected CHO cells; also called NRTN NV3; NV3 (from N3)
B10: V5-tagged neurturin variant NV4 (ligand)
chain: B6 chain with R69A, R72Q, Q73G, R74Q, R75G, R76A, R78V, R79G, E80S
notes: Crude conditioned medium of transfected CHO cells; also called NRTN NV4; NV4 (from N4)

Target: T1, recombinant human GFRα2-Fc chimera (R&D Systems) (human, UniProt O00451 22-441)
T1 construct: Bought reagent; also called GFRalpha2-Fc fusion protein; soluble recombinant GFRα2-Fc chimera; not shown: Fc portion of human IgG1
T1 sequence (looked up): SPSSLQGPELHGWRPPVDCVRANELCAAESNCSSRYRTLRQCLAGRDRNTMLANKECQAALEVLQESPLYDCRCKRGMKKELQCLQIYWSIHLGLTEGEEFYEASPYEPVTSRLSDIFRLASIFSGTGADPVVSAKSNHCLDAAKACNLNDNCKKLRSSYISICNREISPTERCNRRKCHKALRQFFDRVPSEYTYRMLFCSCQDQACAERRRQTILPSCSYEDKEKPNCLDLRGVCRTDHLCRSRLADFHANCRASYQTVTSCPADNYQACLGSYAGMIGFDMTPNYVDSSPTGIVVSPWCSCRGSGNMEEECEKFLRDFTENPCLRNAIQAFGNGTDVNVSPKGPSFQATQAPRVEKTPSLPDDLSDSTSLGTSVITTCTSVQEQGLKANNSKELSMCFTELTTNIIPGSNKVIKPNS
Assay: capture on GFRα2-Fc held on Protein G spin column (after heparin column enrichment), 1.0 M NaCl wash, elution with 2.0 M MgCl2; eluate on non-reducing 15% SDS-PAGE, Coomassie stain
Experimental: Media from NRTN-expressing CHO cells (QMCF Technology at Icosagen Ltd) was thawed at room temperature. HITRAP™ Heparin HP columns (1 ml, GE Healthcare) were equilibrated with 10 ml of 10 mM Hepes, pH 7.2 and 1-10 ml of undiluted media was applied with a syringe according to the manufacturer's instructions. The media was collected and run through the column a second time. The columns were washed with 10 ml of 0.2 M NaCl in 10 mM Hepes, pH 7.2. The NRTN enriched samples were eluted with 5×600 μl of 10 mM Hepes pH 7.2, 1.2 M NaCl. Fractions number two and three were collected and concentrated to a final volume of 50-65 μl, according to the manufacturer's instruction in AmiconUltra 0.5 ml 10K concentrators (Millipore). The samples were then diluted 1:10 with 10 mM Hepes pH 7.2 to a final concentration of NaCl around 120 mM. Soluble recombinant GFRα2-Fc chimera (10-200 μg, R&D Systems) was attached to Protein G HP SpinTrap columns (GE Healthcare) in PBS according to the manufacturer's instructions. The 1:10 diluted samples were added to the GFRα2 columns and incubated for at least one hour at +4° C. with mixing. The columns were first washed with 4×400 μl of cold 10 mM Hepes pH 7.2, 1.0 M NaCl and thereafter with 4×400 μl of cold 10 mM Hepes pH 7.2, 0.1 M NaCl. The NRTN samples were eluted with 5×200 μl of pre-warmed (25° C.) 10 mM Hepes pH 7.2, 2.0 M MgCl₂. The eluted fractions were immediately diluted (1:2) with 10 mM Hepes pH 7.2, 0.150 M NaCl and concentrated with AMICONULTRA™ 0.5 ml 10K concentrators. The samples were further diluted in the same buffer (1:2) and subsequently concentrated three times to yield a final concentration of around 125 mM MgCl₂, and 150 mM NaCl in 10 mM Hepes pH 7.2. Samples of the purified proteins as well as a commercially available batch of neurturin were analyzed using […], under non reducing conditions, and visualized via Coomassie staining.

Binding result, binds:
B1, B2, B3, B4, B5

Target: T1, recombinant human GFRα2-Fc chimera (R&D …)
Assay: precipitation from CHO medium with GFRα2-Fc and Protein G-Sepharose, western blot
Experimental: An aliquot of each media (400 μl) was incubated with recombinant human GFRα2-Fc chimera (0.4 μg, R&D Systems), antibodies to the V5-epitope (0.4 μg, Invitrogen) or antibodies to NRTN (0.4 μg, R&D Systems) for 1 h at +4° C. with mixing. Protein G has a strong affinity for antibodies from mouse and goat as well as for the Fc portion of human IgG₁ in the recombinant GFRα2-Fc chimera. Therefore Protein G-Sepharose was added to the samples and the incubation was continued for 1 h at +4° C. with mixing. After pelleting, the samples were eluted from the protein G-Sepharose with reducing Laemmli buffer and loaded on SDS-PAGE. For Western blot analysis of the V5-tagged variants of NRTN, an anti-V5 antibody (Invitrogen) was used with samples loaded on SDS-PAGE under reducing conditions. For Western blot analysis of the untagged variants of NRTN, an anti-NRTN antibody (R&D Systems) was used with samples loaded on SDS-page under non-reducing conditions.

Binding result, binds:
B6, B7, B8, B9, B10
